± gives the standard deviation.
Assay: collision cross section of modified peptide (TIMS, N2, iRT-aligned); higher = larger / more extended gas-phase ion
Procedure, shortened: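 On a timsTOF Pro/HT (dda-PASEF, nitrogen, ~2.4 mbar), synthetic peptide pools were analysed after a 120-min nanoflow C18 separation at 60 °C and identified in MaxQuant. Three reference ions served for 1/K0 calibration, with run-wise alignment to the median iRT peptide deviation. Collision cross section comes from the Mason-Schamp equation, using the most abundant feature per charge state averaged over 1–3 technical replicates.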

[1] = charge state: 3, modification: Glutarylation
[2] = charge state: 2, modification: Methyl (K)
[3] = charge state: 3, modification: Methyl (K)
[4] = charge state: 2, modification: Phospho (Y)
[5] = charge state: 2, modification: Nitro (Y)
[6] = charge state: 2, modification: Propionyl
[7] = charge state: 2, modification: Crotonyl
[8] = charge state: 2, modification: Biotin
[9] = charge state: 2, modification: Butyryl
[10] = charge state: 2, modification: Formyl
[11] = charge state: 2, modification: Malonyl
[12] = charge state: 2, modification: GlyGly (K)
[13] = charge state: 3, modification: GlyGly (K)
[14] = charge state: 2, modification: Succinyl
[15] = charge state: 3, modification: Succinyl
[16] = charge state: 2, modification: Trimethyl (K)
[17] = charge state: 3, modification: Trimethyl (K)
[18] = charge state: 2, modification: hydroxyisobutyryl
[19] = charge state: 2, modification: Acetyl (K)
[20] = charge state: 3, modification: Acetyl (K)
[21] = charge state: 3, modification: Methyl (R)

SPPLPEHQKIPCNSAEPK [_SPPLPEHQK(Gluratylation)IPCNSAEPK_]
collision cross section [1]: 541.53 Å²

GPPGAKGNK [_GPP(Hydroxyproline)GAKGNK_]
collision cross section (charge state: 2, modification: Hydroxyproline): 311.98 ± 0.24 Å²

VGVEVPDVNIEGPEGKLK [_VGVEVPDVNIEGPEGK(Methyl (K))LK_]
collision cross section [2]: 459.11 ± 16 Å² | collision cross section [3]: 535.61 ± 7.1 Å²

SPASDTYIVFGEAK [_SPASDTY(Phospho (Y))IVFGEAK_]
collision cross section [4]: 410.05 Å²

LDHLAEKFR [_LDHLAEK(Methyl (K))FR_]
collision cross section [2]: 368.51 ± 0.5 Å² | collision cross section [3]: 450.7 ± 4.8 Å²

VETFSGVYK [_VETFSGVY(Nitro (Y))K_]
collision cross section [5]: 348.3 ± 0.55 Å²

AAINQKLIETGER [_AAINQK(Propionyl)LIETGER_]
collision cross section [6]: 404.63 ± 0.38 Å²

VDVEVPDVSLEGPEGKLK [_VDVEVPDVSLEGPEGK(Crotonyl)LK_]
collision cross section [7]: 469.01 ± 1.1 Å²

VNALKNLQVK [_VNALK(Propionyl)NLQVK_]
collision cross section [6]: 372.11 ± 0.65 Å²

GTITVSAQELKDNR [_GTITVSAQELK(Biotin)DNR_]
collision cross section [8]: 437.8 ± 0.23 Å² | collision cross section (charge state: 3, modification: Biotin): 500.75 Å²

DAEAAEATAEGALKAEK [_DAEAAEATAEGALK(Butyryl)AEK_]
collision cross section [9]: 461.9 ± 22 Å² | collision cross section (charge state: 3, modification: Butyryl): 544.71 ± 2 Å²

VPTTEKPTVTVNFR [_VPTTEK(Formyl)PTVTVNFR_]
collision cross section [10]: 425.05 ± 5 Å² | collision cross section (charge state: 3, modification: Formyl): 502.93 ± 1.3 Å²

AGPNASIISLKSDK [_AGPNASIISLK(Crotonyl)SDK_]
collision cross section [7]: 412.97 ± 0.55 Å²

YSSNLGNFNYEQRGAFR [_YSSNLGNFNYEQR(Citrullination (R))GAFR_]
collision cross section (charge state: 3, modification: Citrullination (R)): 530.01 Å²

SYGIPYIETSAK [_SY(Phospho (Y))GIPYIETSAK_]
collision cross section [4]: 390.55 ± 0.64 Å²

LDEKENLSAK [_LDEK(Biotin)ENLSAK_]
collision cross section [8]: 382.87 Å²

VNALKNLQVK [_VNALK(Malonyl)NLQVK_]
collision cross section [11]: 368.09 ± 0.62 Å²

GETASKLQSEISR [_GETASK(Methyl (K))LQSEISR_]
collision cross section [2]: 400.35 Å² | collision cross section [3]: 463.3 ± 3.8 Å²

VLTANSNPSSPSAAKR [_VLTANSNPSSPSAAK(Methyl (K))R_]
collision cross section [2]: 432.87 ± 1.5 Å² | collision cross section [3]: 521.25 ± 1.8 Å²

ANEKTESSSAQQVAVSR [_ANEK(GlyGly (K))TESSSAQQVAVSR_]
collision cross section [12]: 467.32 ± 0.84 Å² | collision cross section [13]: 498.93 ± 1.1 Å²

ISSNFSSIIAEKLR [_ISSNFSSIIAEK(Butyryl)LR_]
collision cross section [9]: 436.86 ± 0.55 Å²

GNDISSGTVLSDYVGSGPPKK [_GNDISSGTVLSDY(Nitro (Y))VGSGPPKK_]
collision cross section (charge state: 3, modification: Nitro (Y)): 549.52 Å²

LQAAYAGDKADDIQK [_LQAAYAGDK(Malonyl)ADDIQK_]
collision cross section [11]: 436.07 ± 1.2 Å²

ASAISIKLGSSK [_ASAISIK(Butyryl)LGSSK_]
collision cross section [9]: 375.24 ± 1.9 Å²

LLFSNTAAQKLR [_LLFSNTAAQK(Succinyl)LR_]
collision cross section [14]: 404.93 ± 0.55 Å² | collision cross section [15]: 482.98 ± 3.3 Å²

FDDTNPEKEEAK [_FDDTNPEK(GlyGly (K))EEAK_]
collision cross section [12]: 402.92 ± 5.6 Å² | collision cross section [13]: 486.07 ± 0.34 Å²

ATVASSTQKFQDLGVK [_ATVASSTQK(Crotonyl)FQDLGVK_]
collision cross section [7]: 452.45 ± 0.83 Å² | collision cross section (charge state: 3, modification: Crotonyl): 494.25 ± 1.6 Å²

LQLEIDQKK [_LQLEIDQK(Crotonyl)K_]
collision cross section [7]: 366.56 Å²

FVDSKVGEFSGANK [_FVDSK(Formyl)VGEFSGANK_]
collision cross section [10]: 406.35 Å²

GTVPDDAVEALADSLGKK [_GTVPDDAVEALADSLGK(Malonyl)K_]
collision cross section [11]: 454.67 ± 1.4 Å²

IISSIEQKEENK [_IISSIEQK(Trimethyl (K))EENK_]
collision cross section [16]: 411.54 ± 1.1 Å² | collision cross section [17]: 448.49 ± 1.5 Å²

ITASLCDLKSR [_ITASLCDLK(hydroxyisobutyryl)SR_]
collision cross section [18]: 395.08 ± 0.81 Å²

INNFSADIKDSK [_INNFSADIK(Formyl)DSK_]
collision cross section [10]: 395.4 ± 0.83 Å²

VDATADYICK [_VDATADY(Nitro (Y))ICK_]
collision cross section [5]: 358.43 ± 0.17 Å²

TSAYGPPTR [_TSAY(Nitro (Y))GPPTR_]
collision cross section [5]: 326.25 ± 1.1 Å²

DASTLQSQKAEGTGDAK [_DASTLQSQK(Acetyl (K))AEGTGDAK_]
collision cross section [19]: 431.11 ± 1.6 Å² | collision cross section [20]: 508.84 ± 0.99 Å²

VTPHPSPRGSPLPTPK [_VTPHPSPR(Methyl (R))GSPLPTPK_]
collision cross section [21]: 512.12 ± 9.6 Å²

VTLEVGKVIQQGR [_VTLEVGK(Succinyl)VIQQGR_]
collision cross section [14]: 412.33 ± 0.54 Å² | collision cross section [15]: 481.23 ± 2 Å²

GTITVSAQELKDNR [_GTITVSAQELK(Propionyl)DNR_]
collision cross section [6]: 415.55 Å²

PASGAGAGAGAGKR [_PASGAGAGAGAGK(Methyl (K))R_]
collision cross section [2]: 381.78 ± 0.91 Å² | collision cross section [3]: 459.46 ± 3.9 Å²

DSSPTTNSKLSALQR [_DSSPTTNSK(Trimethyl (K))LSALQR_]
collision cross section [17]: 473.36 ± 2.4 Å²

ASEALLKQLK [_ASEALLK(Malonyl)QLK_]
collision cross section [11]: 374.73 ± 0.63 Å²

ALYETELADAR [_ALY(Phospho (Y))ETELADAR_]
collision cross section [4]: 383.83 ± 0.063 Å²

YRGDYDR [_YR(Methyl (R))GDYDR_]
collision cross section (charge state: 2, modification: Methyl (R)): 328.99 ± 0.25 Å² | collision cross section [21]: 408.46 ± 0.36 Å²

FDDTNPEKEEAK [_FDDTNPEK(Acetyl (K))EEAK_]
collision cross section [19]: 394.25 ± 1.3 Å² | collision cross section [20]: 440.01 ± 0.78 Å²

SNEEGSEEKGPEVR [_SNEEGSEEK(Acetyl (K))GPEVR_]
collision cross section [19]: 400.7 ± 1 Å²

SPDEAYAIAKK [_SPDEAYAIAK(Malonyl)K_]
collision cross section [11]: 371.15 ± 0.62 Å²

FSAYIKNSNPALNDNLEK [_FSAYIK(Gluratylation)NSNPALNDNLEK_]
collision cross section (charge state: 2, modification: Glutarylation): 487.96 ± 2 Å² | collision cross section [1]: 547.09 ± 1.3 Å²

GFCFITYTDEEPVKK [_GFCFITYTDEEPVK(Formyl)K_]
collision cross section [10]: 450.51 Å²

IPQEKCILQTDVK [_IPQEK(Acetyl (K))CILQTDVK_]
collision cross section [19]: 431.12 ± 1.2 Å²

DAIHFYNKSLAEHR [_DAIHFYNK(Acetyl (K))SLAEHR_]
collision cross section [19]: 449.95 Å² | collision cross section [20]: 504.71 ± 0.24 Å²

DLSTVEALQNLKNLK [_DLSTVEALQNLK(Dimethyl (K))NLK_]
collision cross section (charge state: 2, modification: Dimethyl (K)): 476.15 ± 1.7 Å² | collision cross section (charge state: 3, modification: Dimethyl (K)): 513.29 ± 0.57 Å²

LQEKVESAQSEQK [_LQEK(Succinyl)VESAQSEQK_]
collision cross section [14]: 417.9 ± 0.86 Å² | collision cross section [15]: 502.42 ± 0.72 Å²

APPIDRSILPTAPR [_APPIDR(Methyl (R))SILPTAPR_]
collision cross section [21]: 489.12 ± 2.5 Å²

SGKFTQQDIDEAK [_SGK(Malonyl)FTQQDIDEAK_]
collision cross section [11]: 410.91 ± 0.58 Å²

FDDTNPEKEEAK [_FDDTNPEK(Trimethyl (K))EEAK_]
collision cross section [16]: 399.27 ± 1.6 Å² | collision cross section [17]: 487.6 ± 1.9 Å²

DLSTVEALQNLKNLK [_DLSTVEALQNLK(hydroxyisobutyryl)NLK_]
collision cross section [18]: 486.36 ± 1.3 Å² | collision cross section (charge state: 3, modification: hydroxyisobutyryl): 549.84 ± 1.8 Å²

SSGPGGQNVNKVNSK [_SSGPGGQNVNK(Trimethyl (K))VNSK_]
collision cross section [16]: 400.23 ± 1.6 Å² | collision cross section [17]: 442.26 ± 2.4 Å²

Source: the supplement of paper PMC10598134
